Laboratory results published in the nanobody polyreactivity screen of Harvey et al. (2022).

Assay: yeast display, Sf9 membrane polyspecificity reagent, FACS + sequencing; frameworks hold sequencing errors
Method in brief: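 Sorting gates, low and high (top ~1%), were placed on anti-HA fluorescence to track expression and on streptavidin fluorescence to track reagent binding. A clone's polyreactivity label is taken from the gate it came out of. The reagent was 10% biotinylated, detergent-solubilized Sf9 membrane, applied for 1 hour at 4 °C to galactose-induced yeast display cells.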

Row | Sequence | polyreactivity (PSR sort gate)
1 | QVQLVESGGGLVQAGGSLRLSCAASGRTFKNYAMGWYRQAPGKERELVAAITSGGITNYADSVKGRFTISRDNAKNTVYLQMNSLKPEDTAVYYCNTRRGWRDFDYWGQGTQVTVSS | low polyreactivity
2 | QVQLVESGGGLVQAGGSLRLSCAASGRTFKPYAMGWYRQARGKERELVAAISTRGGSTYYADSVKGRFTISRDNAKNTVYLQMNSLKPEDTAVYYCAATQPGRDYDYWGQGTQVTVSS | low polyreactivity
3 | QVQLVESGGGLVQAGGSLRLSCAASGRTFKRYAMGWYRQAPGKERELVAAITFSGGSTYYADSVKGRFTISRDNAKNTVYLQRNSLKPEDTAVYYCAADGEHYPWYYYWGQGTQVTVSS | high polyreactivity
4 | QVQLVESGGGLVQAGGSLRLSCAASGRTFKRYAMGWYRQAPGKERELVAGISRGGNTNYADSVKGRFTISRDNAKNTVYLQMNSLNPEDTAVYYCNKDYSFEYSLRNRDYWGQGTQVTVSS | low polyreactivity
5 | QVQLVESGGGLVQAGGSLRLSCAASGRTFKSNAMGWYRQAPGKERELVATINYSATSTYYADSVKGSFTISRDNAKNTVYLQMNSLKPEDTAVYYCNVACGYSYRGLDYWGQVTQVTVSS | high polyreactivity
6 | QVQLVESGGGLVQAGGSLRLSCAASGRTFKTYAMAWYRQAPGKERELVAAISRDGRTYYADSVKGRFTISRDNAKNTVYLQMNSLKPEDTAVYYCNKRSYRNGDYWGQGTQVTVSS | low polyreactivity
7 | QVQLVESGGGLVQAGGSLRLSCAASGRTFKTYTMGWYRQEPGKERELVAVISSGGGSTNYADSVKGRFTISRDKAKNTVNLQMNSRKPEDTAVYYCAARKPGRPKYRYDYWGQGSQVTVSS | low polyreactivity
8 | QVQLVESGGGLVQAGGSLRLSCAASGRTFKWYAMGWYRQAPGKERELVAAITTGGNTYYADSVKGRFTISRDNAKNTVYLQMNSLTPEDTAVYYCARVPTQGYNPYEYWGQGTQVTVSS | low polyreactivity
9 | QVQLVESGGGLVQAGGSLRLSCAASGRTFKWYAMGWYRQAPGKERELVAGISRGAGRTYYADSVKWRFTISRDNAKNTFYLEMNSLKPEDTAVYYFAASPVRDGKVIDGRDYWGQGTQVTVSS | high polyreactivity
10 | QVQLVESGGGLVQAGGSLRLSCAASGRTFKYNAMGWYRQAPGKERELVATITRSGGSTYADSVKGRFTISRDNAKNTVYLQMNSLKPEDTAVYYCNLFHVTKDYKTYPQSRYDYWGQGTQVTVSS | high polyreactivity
11 | QVQLVESGGGLVQAGGSLRLSCAASGRTFKYYAMGWYRQAPGKERELVAGISSTGRTNYADSVKGRFTISRDNAKNTVYLQMNSLKPEDTAVYYCNAERKSFGKFDYWGQGTQVTVSS | high polyreactivity
12 | QVQLVESGGGLVQAGGSLRLSCAASGRTFKYYAMGWYRQAPGKERELVATINYSGGGTYYADSVKRRFTSSRDNAKNTVYLQMNSLKPEDTAVYYCAATRYSFGPRRVDYWGQGTQVTVSS | high polyreactivity
13 | QVQLVESGGGLVQAGGSLRLSCAASGRTFKYYTMGWYRQAPGKERELVAAISGSGSRTYYADSVKGRFTISRDNAKNTVYLQMNSLKPEDTAVYYCAARRRISSGYSGPPWIYGYWGQGTQVTVSS | high polyreactivity
14 | QVQLVESGGGLVQAGGSLRLSCAASGRTFKYYTMGWYRQAPGKERELVAGINGGGGSTYYADSVKGRFTISRDNAKNTVYLQMNSMKPEDTAVYYCAVDPFAYFSYWTYDYWGQGTQVTVSS | high polyreactivity
15 | QVQLVESGGGLVQAGGSLRLSCAASGRTFKYYTMGWYRQAPGKERELVATISSSATSTYYADSVKGRFTISRDNAKNTVYLQMNSLKPEDTAVYYCAVERDYGWPIYIRWHFDYWGQGTQVTVSS | low polyreactivity
16 | QVQLVESGGGLVQAGGSLRLSCAASGRTFKYYTMGWYRQAPGKERELVAVIRGTGSTYYADSVKGRFTISRDNAKNTVYLQMNSLKPEDTAVYYCAVQVRRRYNYWGQGTQVTVSS | high polyreactivity
17 | QVQLVESGGGLVQAGGSLRLSCAASGRTFLANAMGWYRQAPGKERELVAAITWSGGRTNYADSVKGRFTISRDNAKNTVYLQMNSLKPEDTAVYYCAADIFYEQVVGGTDVGYHDFDYWGQGTQVTVSS | low polyreactivity
18 | QVQLVESGGGLVQAGGSLRLSCAASGRTFLIYDMGWYRQAPGKVRELVAAIRDRGATTYYADSVKGRFTISRDNAKNTVYLHMNSLKPEDTSVYYCSARNGAYPALKEGDYWGQGTQVTVSS | high polyreactivity
19 | QVQLVESGGGLVQAGGSLRLSCAASGRTFLLYAMGWYRQAPGKERELVAAISIGGGSTRYADSVKGRFTISRDNAKNTVYLQMNSLKPEDTAVYYCAALGRRGGDYWGQGTEVTVSS | high polyreactivity
20 | QVQLVESGGGLVQAGGSLRLSCAASGRTFLLYAMGWYRQAPGKERELVAAISSGGSTYYADSVKGRFTISRDNAKNTVYLQMNSLKPEDTAVYYCNAVYQHLASEYDYWGQGTQVTVSS | low polyreactivity
21 | QVQLVESGGGLVQAGGSLRLSCAASGRTFLPYAMGWYRQAPGKERELVAAITSGGSTSYADSVKGRFTISRDNAKNTVYLQMNSLKPEDSAVYYCAKGYYRFRRFYYGGYYWGQGTQVTVSS | low polyreactivity
22 | QVQLVESGGGLVQAGGSLRLSCAASGRTFLRYAMGWYRQAPGKERELVAAISSRGGTTHYADSVKGRFTISRDNAKNTVYLLMNSLKPEDTAVYYCAAKSFLPYLKFGYWGQGTQVTVSS | high polyreactivity

Row | Sequence | polyreactivity (PSR sort gate)
23 | QVQLVESGGGLVQAGGSLRLSCAASGRTFLRYAMGWYRQAPGKERELVAAISVSGGNTYYADSVKGRFTISRDNAKNTVYLQMKSLKPEDTAVYYCNKARLAAVFSYPYGYWGQGTQVTVSS | low polyreactivity
24 | QVQLVESGGGLVQAGGSLRLSCAASGRTFLRYTMGWYRQAPGKERELVASITRGGSTYYADSVKGRFTISRDNAKNTVYLQMNSLKPEDTAVYYCAVDVYGSHYYTGSLGKPDGYWGQGTQVTVSS | high polyreactivity
25 | QVQLVESGGGLVQAGGSLRLSCAASGRTFLSYAMGWYRPAPGKERELVAAIRWRTGSRTYYADSVKGRFTISRDNAKNKVYLQLNSLKPEDTAVYLCANTYWYPYGYWGQGTQVTLSS | low polyreactivity
26 | QVQLVESGGGLVQAGGSLRLSCAASGRTFLSYTMGWYRQAPGKERELVAAITTSGGSTNYADSVKGRFTISRDNAMNNVYLQMNSLKPEDTAVYYCADEWSVYFNDPRSDYWGQGTQVTVSS | high polyreactivity
27 | QVQLVESGGGLVQAGGSLRLSCAASGRTFLVNAMGWSRQAPGKERELVAAISQRGGSTDYADSVKGRFTISRDNAKNTVYLQMNSLKPEDTAVYYCAVRWGYLYDYWGQGTQVTVSS | low polyreactivity
28 | QVQLVESGGGLVQAGGSLRLSCAASGRTFLVYAMGWYRQAPGKERELVATIRASTGSTYADSVKGRFTISRDNAKNTVYLQMNSLKPEDTAVYYCAASIRTSPYNYDYWGQGTQVTVSS | high polyreactivity
29 | QVQLVESGGGLVQAGGSLRLSCAASGRTFLWNDMGWYRQAPGKERELVAAITGSDGTYADSVKGRFTISRDNAKNTVYLQMNSLKPEDTAVYYCAAETYGYFPWKYDYWGQGTQVTVSS | low polyreactivity
30 | QVQLVESGGGLVQAGGSLRLSCAASGRTFLWYAMGWYRQAPGKERELVAAIRWRGTSTYYADSVKGRFTISRDNAKNTVYLQMNSLKPEDTAVYYCAAKVRSLYWFDYWGQGTQVTVSS | high polyreactivity
31 | QVQLVESGGGLVQAGGSLRLSCAASGRTFLWYAMGWYRQAPGKERELVAAITTAGSTYYADSVKGRFTISRDNAKNTVYLQMNSLKPEDTAVYYCNRLTYAYPPPVLGVGHDSWGQGTQVTVSS | low polyreactivity
32 | QVQLVESGGGLVQAGGSLRLSCAASGRTFLYNAMGWYIQAPGKERELVAAISWNGGRTYYADSVKGRFTISRDNAKNTVYLQMNSLKPEDTAVYYCAKVDQLYNSRYDYWGQGTQVTVSS | high polyreactivity
33 | QVQLVESGGGLVQAGGSLRLSCAASGRTFLYNAMGWYRQAHGKERELVAAIDQSGGSTYYADSVKGRFTISRDNAKNTVYLQMNSLKPEDTAVYYCAAYWEGSWYYKKYYYWGQGTQVTVSS | high polyreactivity
34 | QVQLVESGGGLVQAGGSLRLSCAASGRTFLYNAMGWYRQAPGKERELVAAISFDDGSTYYADSVKGRFTISRDNAKNTVYLQMNSLKPEDTAVYYCAAEYLYVGDSQAYNQYEYWGQGTQVTVSS | low polyreactivity
35 | QVQLVESGGGLVQAGGSLRLSCAASGRTFLYNAMGWYRQAPGKERELVAAISWSGGSTYYADSVKGRFTISRDNAKNTVYLQMIILKPEDTAVYYCAATGRRSGFYYWGQGTQVTVSS | high polyreactivity
36 | QVQLVESGGGLVQAGGSLRLSCAASGRTFLYNAMGWYRQAPGKERELVAGITQSGSSTYYADSVKGRFTISRDNAKNTVYLQMNSLKPEDTAVYYCAKVLYRRGYKFDYWGQGTQVTVSS | low polyreactivity
37 | QVQLVESGGGLVQAGGSLRLSCAASGRTFLYYAMGWDRPAPGKERELVAAITRGGGSTYYADSVKGRFTISRDNAKNTVYLPMNSLKPEDTAVYYCAVEYRVDYYVEYDYWGQGTQVTVSS | high polyreactivity
38 | QVQLVESGGGLVQAGGSLRLSCAASGRTFLYYAMGWYRQAPGKERELVAGITSGGSTNYADSVKGRFTISRDNAKNTVYLQMNSLKPEATAVYYCAVDQGYSRTADVNYDYWGQGTQVTVSS | low polyreactivity
39 | QVQLVESGGGLVQAGGSLRLSCAASGRTFNFNAMGWYRQAPGKERELVATITSRGGSTYADSVKGRFTISRDNAKNTVYLQMNSLKPEDTAVYYCNARTPYIRDYQYWRKYDYWGQGTQVTVSS | high polyreactivity
40 | QVQLVESGGGLVQAGGSLRLSCAASGRTFNFYAMGWYRQAPGKERELVAAISRTGGITYYADSVKGRFTISRDNAKNTVYLQMNSLKPEDTAVYYCNAEYIYYYPTDPYTYYYWGQGTQVTVSS | low polyreactivity
41 | QVQLVESGGGLVQAGGSLRLSCAASGRTFNFYPMGWYRPAPGKERELVAAITVRGGSTYYSDSVKGRFTISRYNAKNTVYLQMNSLKPEDTAVYYCAADPYPYYGAYDYWGQGTQVTVSS | high polyreactivity
42 | QVQLVESGGGLVQAGGSLRLSCAASGRTFNFYTMGWYRQAPGKEREFVAGITSTGGSTDYADSVKGRFTISRDNAKNSVYLQMNSLKPEDTAVYYCNKVTSFVGEYDYWGQGTQVTVSS | high polyreactivity
43 | QVQLVESGGGLVQAGGSLRLSCAASGRTFNHYAMGWYRQAPGKERELVAGITISGGSTYYADSVKGRFTISRDHAKNTVDLQMNSLKPEATAVYYCNAVSDYYRQSKWTMDYWGQGTQVTVSS | low polyreactivity
